In article PMC8418782 (Molecular cell, 2021):

Key:
human Hsp90α [1] = molecular target: T1, human Hsp90α (human, UniProt P07900 1-732); assay: SEC-MALS
human Hsp90α [2] = molecular target: T1, human Hsp90α; assay: SEC-MALS; remark: listed apart in the source

| Binder | stoichiometry N (human Hsp90α [1]) | binding result (human Hsp90α [2]) |
| --- | --- | --- |
| human p23 (natural protein) MQPASAKWYDRRDYVFIEFCVEDSKDVNVNFEKSKLTFSCLGGSDNFKHLNEIDLFHCIDPNDSKHKRTDRSILCCLRKGESGQSWPRLTKERAKLNWLSVDFNNWKDWEDDSDEDMSNFDRFSEMMNNMGGDEDVDLPEVDGADDDSQDSDDEKMPDLE | ~0.5 p23 per Hsp90 chain (Hsp90:FKBP51:p23 2:1:1) |  |
| FKBP51 N402K (natural protein, human, UniProt Q13451 1-457, looked up) MTTDEGAKNNEESPTATVAEQGEDITSKKDRGVLKIVKRVGNGEETPMIGDKVYVHYKGKLSNGKKFDSSHDRNEPFVFSLGKGQVIKAWDIGVATMKKGEICHLLCKPEYAYGSAGSLPKIPSNATLFFEIELLDFKGEDLFEDGGIIRRTKRKGEGYSNPNEGATVEIHLEGRCGGRMFDCRDVAFTVGEGEDHDIPIGIDKALEKMQREEQCILYLGPRYGFGEAGKPKFGIEPNAELIYEVTLKSFEKAKESWEMDTKEKLEQAAIVKEKGTVYFKGGKYMQAVIQYGKIVSWLEMEYGLSEKESKASESFLLAAFLNLAMCYLKLREYTKAVECCDKALGLDSANEKGLYRRGEAQLLMNEFESAKGDFEKVLEVNPQNKAARLQISMCQKKAKEHKERDRRIYANMFKKFAEQDAKEEANKAMGKKTSEGVTNEKGTDSQAMEEEKPEGHV |  | binds |
| FKBP51 ΔH7e (Δ401–457) (domain or fragment, human, UniProt Q13451 1-400, looked up) MTTDEGAKNNEESPTATVAEQGEDITSKKDRGVLKIVKRVGNGEETPMIGDKVYVHYKGKLSNGKKFDSSHDRNEPFVFSLGKGQVIKAWDIGVATMKKGEICHLLCKPEYAYGSAGSLPKIPSNATLFFEIELLDFKGEDLFEDGGIIRRTKRKGEGYSNPNEGATVEIHLEGRCGGRMFDCRDVAFTVGEGEDHDIPIGIDKALEKMQREEQCILYLGPRYGFGEAGKPKFGIEPNAELIYEVTLKSFEKAKESWEMDTKEKLEQAAIVKEKGTVYFKGGKYMQAVIQYGKIVSWLEMEYGLSEKESKASESFLLAAFLNLAMCYLKLREYTKAVECCDKALGLDSANEKGLYRRGEAQLLMNEFESAKGDFEKVLEVNPQNKAARLQISMCQKKAKE |  | binds |
